± gives the uncertainty stated by the source.
Test: self-splicing fitness, log relative to wild type (ln ratio); higher = more splicing; Tetrahymena group I intron in knt gene, E. coli kanamycin selection, DiMSum; sequences stand for … in CUCUCU…GGAGGGAAAAGUUAUCAGGCAUGCACCUGGUAGCUAGUCUUUAAACCAAUAGAUUGCAUCGGUUUAAAAGGCAAGACCGUCAAAUUGCGGGAAAGGGGUCAACAGCCGUUCAGUACCAAGUCUCAGGGGAAACUUUGAGAUGGCCUUGCAAAGGGUAUGGUAAUAAGCUGACGGACAUGGUCCUAACCACGCAGCCAAGUCCUAAGUCAACAGAUCUUCUGUUGAUAUGGAUGCAGUUCACAGACUAAAUGUCGGUCGGGGAAGAUGUAUUCUUCUCAUAAGAUAUAGUCGGACCUCUCCUUAAUGGGAGCUAGCGGAUGAAGUGAUGCAACACUGGAGCCGCUGGGAACUAAUUUGUAUGCGAAAGUAUAUUGAUUAGUUUUGGAGUACUCGUGGUCG
In short: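 A randomised library covering all eight P1ex-region intron nucleotides was built with the intron in the knt kanamycin-resistance gene on pET-22b(+) and held in E. coli BL21(DE3). Cells were grown overnight at 37°C or 30°C on LB agar, with or without 25 μg/mL kanamycin, plus 100 μg/mL carbenicillin, 50 μM IPTG and 0.2% rhamnose, and pooled colonies were amplicon-sequenced on an Illumina HiSeq 2500. DiMSum fitness is the error-weighted combination of wild-type-normalised replicate fold changes, kanamycin versus none.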

Row | Sequence | self-splicing fitness (ln) (30 °C) | self-splicing fitness (ln) (37 °C)
1 | CUGCAGCAAUAUUACGGCCG | -0.291 ± 0.12 | -0.672 ± 0.14
2 | CUGCAGCAAUAUUACGGCUA | -2.6 ± 0.19 | -0.78 ± 0.17
3 | CUGCAGCAAUAUUACGGGAG | -2.74 ± 0.11 | -1.79 ± 0.12
4 | CUGCAGCAAUAUUACGGGUG | -0.771 ± 0.049 | -0.0809 ± 0.058
5 | CUGCAGCAAUAUUACGGUCA | -3.07 ± 0.23 | -2.18 ± 0.16
6 | CUGCAGCAAUAUUACGUAAU | -4.74 ± 0.2 | -2.04 ± 0.16
7 | CUGCAGCAAUAUUACGUACU | -2.89 ± 0.2 | -1.69 ± 0.21
8 | CUGCAGCAAUAUUACGUAGU | -4.54 ± 0.45 | -2.5 ± 0.28
9 | CUGCAGCAAUAUUACGUCUA | -1.64 ± 0.12 | -0.709 ± 0.15
10 | CUGGAGCAAUAUUACGAAAU | -3.11 ± 0.22 | -2.72 ± 0.29
11 | CUGGAGCAAUAUUACGAACG | -0.869 ± 0.15 | 0.129 ± 0.16
12 | CUGGAGCAAUAUUACGAAUG | -1.88 ± 0.12 | 0.0741 ± 0.15
13 | CUGGAGCAAUAUUACGACAA | -2.11 ± 0.2 | -1.7 ± 0.2
14 | CUGGAGCAAUAUUACGACAU | -2.19 ± 0.019 | -1.3 ± 0.036
15 | CUGGAGCAAUAUUACGACCG | -0.607 ± 0.082 | 0.106 ± 0.14
16 | CUGGAGCAAUAUUACGAUAC | -2.26 ± 0.22 | 
17 | CUGGAGCAAUAUUACGAUGU | -3.26 ± 0.16 | -2.97 ± 0.23
18 | CUGGAGCAAUAUUACGAUUU | -4.07 ± 0.46 | -2.01 ± 0.34
19 | CUGGAGCAAUAUUACGCAGU |  | -1.99 ± 0.43
20 | CUGGAGCAAUAUUACGCGGA | -1.86 ± 0.24 | 
21 | CUGGAGCAAUAUUACGGAGC | -3.08 ± 0.34 | -2.38 ± 0.38
22 | CUGGAGCAAUAUUACGGAUU | -3.29 ± 0.43 | -2.83 ± 0.34
23 | CUGGAGCAAUAUUACGGCAA | -2.52 ± 0.25 | -2.75 ± 0.3
24 | CUGGAGCAAUAUUACGGCUC | -2.58 ± 0.3 | 
25 | CUGGAGCAAUAUUACGGUCG | -1.2 ± 0.087 | -0.266 ± 0.12
26 | CUGGAGCAAUAUUACGUAUA | -3.12 ± 0.36 | -2.48 ± 0.3

Row | Sequence | self-splicing fitness (ln) (30 °C) | self-splicing fitness (ln) (37 °C)
27 | CUGGAGCAAUAUUACGUCGA | -3.15 ± 0.29 | -2.82 ± 0.34
28 | CUGGAGCAAUAUUACGUGAU | -2.53 ± 0.076 | -1.18 ± 0.078
29 | CUGGAGCAAUAUUACGUUGG | -2.89 ± 0.14 | -1.86 ± 0.15
30 | CUGUAGCAAUAUUACGAAAU | -3.22 ± 0.23 | -2.54 ± 0.26
31 | CUGUAGCAAUAUUACGAAGC | -4.57 ± 0.42 | -2.67 ± 0.38
32 | CUGUAGCAAUAUUACGACGA | -1.4 ± 0.19 | -0.118 ± 0.15
33 | CUGUAGCAAUAUUACGAGAA |  | -2.78 ± 0.38
34 | CUGUAGCAAUAUUACGAGAC | -2.77 ± 0.2 | -0.769 ± 0.14
35 | CUGUAGCAAUAUUACGCGAC | -2.56 ± 0.2 | -2.41 ± 0.28
36 | CUGUAGCAAUAUUACGCUGC | -3.17 ± 0.3 | 
37 | CUGUAGCAAUAUUACGGAAU | -2.18 ± 0.13 | -3.57 ± 0.32
38 | CUGUAGCAAUAUUACGGACG | -1.53 ± 0.12 | -0.319 ± 0.15
39 | CUGUAGCAAUAUUACGGGAU | -3.16 ± 0.26 | -2.28 ± 0.23
40 | CUGUAGCAAUAUUACGGGUA | -1.96 ± 0.35 | 
41 | CUGUAGCAAUAUUACGGUAU | -2.41 ± 0.15 | -2.08 ± 0.18
42 | CUGUAGCAAUAUUACGGUCC | -2.27 ± 0.25 | -2.71 ± 0.44
43 | CUGUAGCAAUAUUACGGUGA | -3.22 ± 0.22 | -2.28 ± 0.24
44 | CUGUAGCAAUAUUACGUAGG | -1.03 ± 0.075 | -0.77 ± 0.12
45 | CUGUAGCAAUAUUACGUCUA |  | -1.78 ± 0.39
46 | CUGUAGCAAUAUUACGUGAG | -1.31 ± 0.072 | -0.935 ± 0.096
47 | CUGUAGCAAUAUUACGUGGA | -3.85 ± 0.28 | -4.32 ± 0.42
48 | CUGUAGCAAUAUUACGUGGC |  | 0.0373 ± 0.2
49 | CUUAAGCAAUAUUACGAAAG | -2.9 ± 0.22 | -1.75 ± 0.18
50 | CUUAAGCAAUAUUACGAACC |  | -0.593 ± 0.37
51 | CUUAAGCAAUAUUACGAGAC |  | -3.26 ± 0.43
52 | CUUAAGCAAUAUUACGCAGC | -3.43 ± 0.25 | -1.93 ± 0.37

Row | Sequence | self-splicing fitness (ln) (30 °C) | self-splicing fitness (ln) (37 °C)
53 | CUUAAGCAAUAUUACGCAUC |  | -0.617 ± 0.29
54 | CUUAAGCAAUAUUACGCCCA | -2.46 ± 0.32 | -1.69 ± 0.48
55 | CUUAAGCAAUAUUACGCCUC | -1.85 ± 0.22 | 
56 | CUUAAGCAAUAUUACGCGAC | -1.83 ± 0.16 | -0.508 ± 0.23
57 | CUUAAGCAAUAUUACGCGCG | -1.54 ± 0.12 | -0.513 ± 0.17
58 | CUUAAGCAAUAUUACGCGUA | -2.75 ± 0.34 | -3.23 ± 0.29
59 | CUUAAGCAAUAUUACGCGUU | -4.44 ± 0.23 | -3.85 ± 0.25
60 | CUUAAGCAAUAUUACGGAGU | -2.92 ± 0.099 | -2.31 ± 0.12
61 | CUUAAGCAAUAUUACGGGUA | -2.7 ± 0.22 | -2.75 ± 0.38
62 | CUUAAGCAAUAUUACGGUUG | -1.95 ± 0.14 | -1.3 ± 0.14
63 | CUUAAGCAAUAUUACGUAAA | -3.93 ± 0.27 | -2.88 ± 0.36
64 | CUUAAGCAAUAUUACGUACU | -2.82 ± 0.16 | -2.67 ± 0.23
65 | CUUAAGCAAUAUUACGUAUC |  | -2.98 ± 0.33
66 | CUUAAGCAAUAUUACGUCAG | -0.948 ± 0.084 | -0.564 ± 0.1
67 | CUUAAGCAAUAUUACGUCCU | -3.41 ± 0.21 | -2.43 ± 0.19
68 | CUUAAGCAAUAUUACGUCGC |  | -1.65 ± 0.33
69 | CUUAAGCAAUAUUACGUCUC | -3.75 ± 0.33 | -2.11 ± 0.27
70 | CUUAAGCAAUAUUACGUCUU | -3.64 ± 0.24 | -3.11 ± 0.25
71 | CUUAAGCAAUAUUACGUUAU | -3.09 ± 0.14 | -2.51 ± 0.2
72 | CUUAAGCAAUAUUACGUUGU | -3.89 ± 0.2 | -1.64 ± 0.15
73 | CUUCAGCAAUAUUACGAAAA | -2.29 ± 0.2 | -3.03 ± 0.35
74 | CUUCAGCAAUAUUACGACCU | -2.42 ± 0.21 | -1.7 ± 0.27
75 | CUUCAGCAAUAUUACGAGCC | -2.29 ± 0.21 | -1.59 ± 0.3
76 | CUUCAGCAAUAUUACGAGGC | -4.72 ± 0.41 | -1.59 ± 0.4
77 | CUUCAGCAAUAUUACGCACG | -1.02 ± 0.085 | -0.456 ± 0.13
78 | CUUCAGCAAUAUUACGCGUA | -2.92 ± 0.18 | -2.46 ± 0.17

Row | Sequence | self-splicing fitness (ln) (30 °C) | self-splicing fitness (ln) (37 °C)
79 | CUUCAGCAAUAUUACGCUAG | -3.22 ± 0.26 | -1.34 ± 0.19
80 | CUUCAGCAAUAUUACGCUCG | -2.42 ± 0.15 | -0.933 ± 0.26
81 | CUUCAGCAAUAUUACGGAAU | -1.46 ± 0.13 | -1.17 ± 0.14
82 | CUUCAGCAAUAUUACGGAGA | -3.47 ± 0.21 | -3.04 ± 0.19
83 | CUUCAGCAAUAUUACGGGGA | -3.36 ± 0.27 | -1.65 ± 0.18
84 | CUUCAGCAAUAUUACGGUAA | -1.67 ± 0.23 | -1.88 ± 0.17
85 | CUUCAGCAAUAUUACGGUCA | -2.2 ± 0.25 | -3.2 ± 0.24
86 | CUUCAGCAAUAUUACGUUGU | -3.52 ± 0.18 | -2.92 ± 0.28
87 | CUUGAGCAAUAUUACGACUU | -2.53 ± 0.37 | -3.56 ± 0.43
88 | CUUGAGCAAUAUUACGAGCA | -2.65 ± 0.41 | -3.07 ± 0.33
89 | CUUGAGCAAUAUUACGAGGA | -3.08 ± 0.38 | 
90 | CUUGAGCAAUAUUACGAUAA | -3.27 ± 0.31 | -0.951 ± 0.37
91 | CUUGAGCAAUAUUACGAUGU | -2.24 ± 0.14 | -3.43 ± 0.26
92 | CUUGAGCAAUAUUACGCAGG | -3.46 ± 0.25 | -3.55 ± 0.35
93 | CUUGAGCAAUAUUACGCUAA | -4.05 ± 0.31 | -3.36 ± 0.35
94 | CUUGAGCAAUAUUACGCUAU | -3.44 ± 0.34 | -2.58 ± 0.49
95 | CUUGAGCAAUAUUACGCUCU | -2.57 ± 0.5 | -1.13 ± 0.33
96 | CUUGAGCAAUAUUACGGAUU | -4.83 ± 0.45 | -3.23 ± 0.29
97 | CUUGAGCAAUAUUACGGCAU |  | -1.93 ± 0.28
98 | CUUGAGCAAUAUUACGGGCA | -3.94 ± 0.35 | -1.91 ± 0.21
99 | CUUGAGCAAUAUUACGGUAA |  | -2.99 ± 0.47
100 | CUUGAGCAAUAUUACGGUAC | -2.24 ± 0.2 | -2.16 ± 0.42
101 | CUUGAGCAAUAUUACGUAAU | -2.79 ± 0.18 | -2.81 ± 0.24
